Assay results published in the supplement of paper PMC7877785.
± gives the uncertainty stated by the source.

Test: self-splicing fitness, log relative to wild type (ln ratio); higher = more splicing; Tetrahymena group I intron in knt gene, E. coli kanamycin selection, DiMSum; sequences stand for … in CUCUCU…GGAGGGAAAAGUUAUCAGGCAUGCACCUGGUAGCUAGUCUUUAAACCAAUAGAUUGCAUCGGUUUAAAAGGCAAGACCGUCAAAUUGCGGGAAAGGGGUCAACAGCCGUUCAGUACCAAGUCUCAGGGGAAACUUUGAGAUGGCCUUGCAAAGGGUAUGGUAAUAAGCUGACGGACAUGGUCCUAACCACGCAGCCAAGUCCUAAGUCAACAGAUCUUCUGUUGAUAUGGAUGCAGUUCACAGACUAAAUGUCGGUCGGGGAAGAUGUAUUCUUCUCAUAAGAUAUAGUCGGACCUCUCCUUAAUGGGAGCUAGCGGAUGAAGUGAUGCAACACUGGAGCCGCUGGGAACUAAUUUGUAUGCGAAAGUAUAUUGAUUAGUUUUGGAGUACUCGUGGUCG
Procedure, shortened: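 Fitness was computed with DiMSum as the error-weighted combination of replicate fold changes, kanamycin versus none, each normalised to wild type. The library randomised all eight intron nucleotides of the P1ex region, with the intron placed in the knt kanamycin-resistance gene on pET-22b(+) in E. coli BL21(DE3). Six replicate transformations were grown overnight at 37°C or 30°C on LB agar with or without 25 μg/mL kanamycin, plus 100 μg/mL carbenicillin, 50 μM IPTG and 0.2% rhamnose. Pooled colonies were amplicon-sequenced on an Illumina HiSeq 2500.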

Sequence | self-splicing fitness (ln) (30 °C) | self-splicing fitness (ln) (37 °C)
CGUCAGCAAUAUUACGAGAC | -2.95 ± 0.38 | -1.9 ± 0.32
GGUCAGCAAUAUUACGCCUA | -0.826 ± 0.12 | -0.243 ± 0.14
AUGUAGCAAUAUUACGUGUG | -3.33 ± 0.23 | -2.53 ± 0.15
GCUAAGCAAUAUUACGGGUG | -1.24 ± 0.069 | 0.116 ± 0.079
CAGCAGCAAUAUUACGCCAA | -3.43 ± 0.32 | -1.87 ± 0.17
GUUGAGCAAUAUUACGAGUC | -3.09 ± 0.28 | -0.0995 ± 0.16
CGCAAGCAAUAUUACGUCGC | -2.24 ± 0.19 | -3.19 ± 0.29
ACACAGCAAUAUUACGUGCG | -0.45 ± 0.044 | -0.606 ± 0.063
AGUAAGCAAUAUUACGACUC | -1.88 ± 0.13 | -0.797 ± 0.14
AUAUAGCAAUAUUACGUGCA | -1.57 ± 0.16 | 0.00562 ± 0.16
ACUGAGCAAUAUUACGGUCG | -3.49 ± 0.16 | -1.46 ± 0.16
CCCCAGCAAUAUUACGAUCA | -1.97 ± 0.12 | -2.68 ± 0.23
GUUAAGCAAUAUUACGAGGU |  | -2.51 ± 0.34
UAGUAGCAAUAUUACGUAAA | -3.01 ± 0.21 | -1.03 ± 0.15
UUCAAGCAAUAUUACGCAUG | -2.8 ± 0.13 | -1.7 ± 0.16
UAGUAGCAAUAUUACGUGCA | -0.861 ± 0.12 | -0.189 ± 0.11
AGGUAGCAAUAUUACGGGCU | -0.801 ± 0.016 | -0.848 ± 0.035
UUUCAGCAAUAUUACGGAAC | -1.24 ± 0.22 | 
CGUUAGCAAUAUUACGACGG | 0.168 ± 0.13 | -0.377 ± 0.12
CACCAGCAAUAUUACGCUGU | -3.61 ± 0.15 | -2.63 ± 0.19
UGGGAGCAAUAUUACGAAUG | -1.99 ± 0.21 | -2.07 ± 0.33

Sequence | self-splicing fitness (ln) (30 °C) | self-splicing fitness (ln) (37 °C)
GUCUAGCAAUAUUACGGCCG |  | -1.78 ± 0.35
CCUUAGCAAUAUUACGUCAA | -2.87 ± 0.33 | 
GUUCAGCAAUAUUACGUGAU | -0.367 ± 0.049 | 0.43 ± 0.068
CAGGAGCAAUAUUACGUUAU | -3.4 ± 0.29 | -2.71 ± 0.3
AUGCAGCAAUAUUACGAUGG | -3.04 ± 0.21 | -2.94 ± 0.27
UCAUAGCAAUAUUACGCAAA | -2.54 ± 0.25 | -1.72 ± 0.3
UUGUAGCAAUAUUACGCUUG | -0.622 ± 0.12 | -0.277 ± 0.13
AGACAGCAAUAUUACGAGUU | -2.26 ± 0.086 | -1.14 ± 0.099
CACGAGCAAUAUUACGUCAU | -3.65 ± 0.19 | -2.49 ± 0.21
CGGGAGCAAUAUUACGUCCG | -1.07 ± 0.43 | 
GCUGAGCAAUAUUACGCUGG | -3.26 ± 0.31 | -2.22 ± 0.42
ACGAAGCAAUAUUACGCAUA | -1.44 ± 0.08 | -0.782 ± 0.072
CACGAGCAAUAUUACGGCGC |  | -1.73 ± 0.4
UGUUAGCAAUAUUACGAUUU | -0.79 ± 0.11 | -1.55 ± 0.14
UGGUAGCAAUAUUACGUAUG | -1.66 ± 0.13 | -1.18 ± 0.13
UAGAAGCAAUAUUACGAUCU | -1.11 ± 0.12 | -0.261 ± 0.16
AGCCAGCAAUAUUACGAUAU | -3.25 ± 0.16 | -1.83 ± 0.14
GAUAAGCAAUAUUACGAGGC |  | -2.76 ± 0.44
GUAGAGCAAUAUUACGACAG | -3.49 ± 0.33 | -1.86 ± 0.3
UACGAGCAAUAUUACGACAA | -2.15 ± 0.47 | -1.2 ± 0.31
CACAAGCAAUAUUACGACAA | -3.12 ± 0.2 | -2.04 ± 0.17

Sequence | self-splicing fitness (ln) (30 °C) | self-splicing fitness (ln) (37 °C)
GGGCAGCAAUAUUACGACGC | 0.36 ± 0.13 | -0.0449 ± 0.18
UACCAGCAAUAUUACGAUAG | -1.1 ± 0.067 | 0.0475 ± 0.097
AGAAAGCAAUAUUACGGACC | -0.299 ± 0.3 | 0.21 ± 0.3
CGUGAGCAAUAUUACGGAGA | -3.88 ± 0.33 | -1.57 ± 0.25
CACCAGCAAUAUUACGUUUC | -4.36 ± 0.19 | -2.58 ± 0.22
UCAUAGCAAUAUUACGCUGC | -3.13 ± 0.31 | -2.52 ± 0.41
UCUCAGCAAUAUUACGUAGG | -0.566 ± 0.053 | -0.133 ± 0.1
AACUAGCAAUAUUACGCCGA | -1.74 ± 0.18 | -0.583 ± 0.18
GCUUAGCAAUAUUACGCUAG | -2.81 ± 0.12 | -2.19 ± 0.14
GGUAAGCAAUAUUACGACUG | -0.569 ± 0.12 | -0.0619 ± 0.14
GACUAGCAAUAUUACGUGCU | -3.61 ± 0.16 | -1.9 ± 0.12
AAUCAGCAAUAUUACGUUGG | -2.06 ± 0.1 | -1 ± 0.1
CUCAAGCAAUAUUACGAGCG | -3 ± 0.15 | -1.31 ± 0.12
CCCCAGCAAUAUUACGGGAG | -3.08 ± 0.17 | -2.61 ± 0.18
UGCCAGCAAUAUUACGUGUU | -2.74 ± 0.1 | -1.67 ± 0.075
GAAGAGCAAUAUUACGGUAG | -3.51 ± 0.17 | -3.01 ± 0.22
CGGUAGCAAUAUUACGGGUU | -3.51 ± 0.21 | -3.67 ± 0.22
UUACAGCAAUAUUACGAUCU | -1.88 ± 0.063 | -1.02 ± 0.079
GGCCAGCAAUAUUACGUCUA | -2.43 ± 0.084 | -1.29 ± 0.078
ACCUAGCAAUAUUACGGAGG | -2.4 ± 0.14 | -2.16 ± 0.21
